Experimental findings from patent US11160886B2, “Method for labeling of sensitive and thermosensitive targeting biomolecules with technetium based compounds” (BRACCO IMAGING SPA, priority 2016, dated 2021) are described below.

The nature of the data set: Challenge reactions (transchelation) with excess Cys, GSH or EDTA, RCP by HPLC. The conditions noted are these: 10 mM. Format: physicochemical. The protocol: The transchelation studies were performed for some compounds monitoring by HPLC the radiochemical purity (RCP) of the complexes in presence of an excess of exchanging ligands over the time. The experiments were performed in triplicate.
Challenge experiments were carried out on the purified [^99mTc(N)(PNP3OH)]-labeled small size compounds (complex 1, complex 2, complex 9 and complex 10) using an excess of glutathione (GSH) or Cys. An aliquot (50 μl) of an aqueous stock solution of cysteine hydrochloride (10 mM; 1 mM) was added to a propylene test tube containing PB (250 μl, 0.2 M; pH 7.4), water (100 μl) and the selected [^99mTc(N)(PNP3OH)]-compound (100 μl). The mixture was vortexed and incubated at 37° C. for 24 h. A control reaction containing an equal volume of water, instead of cysteine hydrochloride, was studied in parallel. At 30 min, 1, 3 and 24 h, aliquots of the reaction mixture were withdrawn and analyzed by HPLC chromatography. A similar procedure was applied using GSH (50 μl, 10 mM) as challenge ligand.
For [^99mTc(N)(PNP3OH)(Cys-Gly-Lys-Gly-ApoMb)]^+ (“Cys-Gly-Lys-Gly” disclosed as SEQ ID NO: 1) additional experiments were conducted using EDTA (50 μl, 10 mM) as exchanging ligand.

“[^99mTc(N)(PNP3OH)(Cys-Gly-Lys-Gly-ApoMb)]^+”: the “Stability in challenge with excess of Cys, GSH and EDTA” value was “do not affect the stability”.
